From patent US20210340530A1 (INTELLIA THERAPEUTICS, published 2021)
One block for each binder: values may come before it.

What was measured:
[1] = biological target: T1, VLD-Tetramer (pMHC tetramer with WT1 peptide …); assay: flow cytometry, VLD-Tetramer staining of engineered T cells; TRAC RNP only
T1 construct: Staining reagent; also called VLD (Wilms' tumor antigen) tetramer; TCR specific pMHC tetramer
Description: (§1) Four to 12 days after RNP nucleofection, edited T cells (200 ul/200,000 cells) were collected in a 96 well round bottom plate and spun down at 500 g for 5 minutes. Cells were then resuspended in an antibody mixture containing a combination of antibodies targeting CD3, CD4, CD8, CD45RO, CD45RA, CD27, CCR7, CD62L, and/or the TCR specific pMHC tetramer or TCR specific Vbeta chain antibody. The mixture was incubated for 45 minutes at room temperature in the dark. Samples were spun down at 500 g for 5 minutes, cell pellets collected, and resuspended in 1:10,000 DAPI (Biolegend—#422801) in FACS buffer. Flow cytometry was then performed using the cytoflex according to the manufacturer's instructions.
(§2) T cells were evaluated with additional engineered TCRs for the impact of endogenous beta chains on pairing of both the inserted alpha chain and inserted beta chain. The experiment was performed as described herein except tetramer staining was used to measure MFI and the AAV inserts in Table 31 were used for transduction.

[2] = biological target: T1, VLD-Tetramer (pMHC tetramer with WT1 …); assay: flow cytometry, VLD-Tetramer staining of engineered T cells; TRAC + TRBC RNP
Description: as §1, §2

[3] = biological target: T2, … (VLD) WT1 peptide pulsed on target cells (HLA-02.01 positive T2 cell line; OCI-AML3); assay: cell-based or functional assay
[4] = biological target: T2, … (VLD) WT1 peptide pulsed on target …; assay: cell-based or functional assay; remark: listed apart in the source
[5] = biological target: T3, … (RMF) WT1 peptide pulsed on target cells (HLA-02.01 positive T2 cell line; OCI-AML3); assay: cell-based or functional assay
[6] = biological target: T2, … (VLD) WT1 peptide pulsed on target …; assay: cell-based or functional assay; remark: listed apart in the source
[7] = biological target: T3, … (RMF) WT1 peptide pulsed on target …; assay: cell-based or functional assay; remark: listed apart in the source
[8] = biological target: T2, … (VLD) WT1 peptide pulsed on target …; assay: cell-based or functional assay; remark: listed apart in the source
[9] = biological target: T3, … (RMF) WT1 peptide pulsed on target …; assay: cell-based or functional assay; remark: listed apart in the source
[10] = biological target: T2, … (VLD) WT1 peptide pulsed on target …; assay: cell-based or functional assay; remark: listed apart in the source

Mean % Tetramer+ (CD4+) [1]: 78.9%
Mean % Tetramer+ (CD8+) [1]: 61%
Mean Tetramer MFI (CD4+) [1]: 67300 MFI
Mean Tetramer MFI (CD8+) [1]: 50100 MFI
Mean % Tetramer+ (CD4+) [2]: 81.8%
Mean % Tetramer+ (CD8+) [2]: 76.6%
Mean Tetramer MFI (CD4+) [2]: 231000 MFI
Mean Tetramer MFI (CD8+) [2]: 172000 MFI
B1: TCR-F (WT1-specific T-cell receptor) (TCR, V domains shown)
V domain 1: AQKITQTQPGMFVQEKEAVTLDCTYDTSDPSYGLFWYKQPSSGEMIFLIYQGSYDQQNATEGRYSLNFQKARKSANLVISASQLGDSAMYFCAISGNTPLVFGKGTRLSVIA
V domain 2: AAGVIQSPRHLIKEKRETATLKCYPIPRHDTVYWYQQGPGQDPQFLISFYEKMQSDKGSIPDRFSAQQFSDYHSELNMSSLELGDSALYFCASSLRGGLEKLFFGSGTQLSVLE
notes: also called AV14-TCR-F

Mean % Tetramer+ (CD4+) [1]: 7.6%
Mean % Tetramer+ (CD8+) [1]: 12.7%
Mean Tetramer MFI (CD4+) [1]: 10100 MFI
Mean Tetramer MFI (CD8+) [1]: 21900 MFI
IFN-gamma release; TRAC/TRBC; 50 nM VLD; T2 [3]: 40200
IFN-gamma release; TRAC/TRBC; 500 nM VLD; T2 [3]: 47600
IFN-gamma release; only TRAC; 50 nM VLD; T2 [3]: 28100
IFN-gamma release; only TRAC; 500 nM VLD; T2 [3]: 31500
Caspase 3/7 integrated intensity; TRAC only; 0 nM VLD; T2 [4]: 9040
Caspase 3/7 integrated intensity; TRAC only; 0.005 nM VLD; T2 [4]: 9180
Caspase 3/7 integrated intensity; TRAC only; 0.05 nM VLD; T2 [4]: 16900
Caspase 3/7 integrated intensity; TRAC only; 0.5 nM VLD; T2 [4]: 38800
Caspase 3/7 integrated intensity; TRAC only; 5 nM VLD; T2 [4]: 137000
Caspase 3/7 integrated intensity; TRAC only; 50 nM VLD; T2 [4]: 207000
Caspase 3/7 integrated intensity; TRAC only; 500 nM VLD; T2 [4]: 233000
Caspase 3/7 integrated intensity; TRAC/TRBC; 0 nM VLD; T2 [4]: 381000
Caspase 3/7 integrated intensity; TRAC/TRBC; 0.005 nM VLD; T2 [4]: 374000
Caspase 3/7 integrated intensity; TRAC/TRBC; 0.05 nM VLD; T2 [4]: 1.13e+06
Caspase 3/7 integrated intensity; TRAC/TRBC; 0.5 nM VLD; T2 [4]: 1.17e+06
Caspase 3/7 integrated intensity; TRAC/TRBC; 5 nM VLD; T2 [4]: 1.33e+06
Caspase 3/7 integrated intensity; TRAC/TRBC; 50 nM VLD; T2 [4]: 1.2e+06
Caspase 3/7 integrated intensity; TRAC/TRBC; 500 nM VLD; T2 [4]: 1.57e+06
Caspase 3/7 integrated intensity; TRAC only; 500 nM RMF; T2 [5]: 7340
Caspase 3/7 integrated intensity; TRAC/TRBC; 500 nM RMF; T2 [5]: 280000
Mean % Tetramer+ (CD4+) [2]: 48%
Mean % Tetramer+ (CD8+) [2]: 51.2%
Mean Tetramer MFI (CD4+) [2]: 11300 MFI
Mean Tetramer MFI (CD8+) [2]: 23700 MFI
% CD4+ TNFa+ IFNg+; TRAC/TRBC; 0 nM VLD; T2 [6]: 1.1%
% CD4+ TNFa+ IFNg+; TRAC/TRBC; 0.005 nM VLD; T2 [6]: 1.6%
% CD4+ TNFa+ IFNg+; TRAC/TRBC; 0.05 nM VLD; T2 [6]: 1.2%
% CD4+ TNFa+ IFNg+; TRAC/TRBC; 0.5 nM VLD; T2 [6]: 1.8%
% CD4+ TNFa+ IFNg+; TRAC/TRBC; 5 nM VLD; T2 [6]: 11.1%
% CD4+ TNFa+ IFNg+; TRAC/TRBC; 50 nM VLD; T2 [6]: 25.1%
% CD8+ TNFa+ IFNg+; TRAC/TRBC; 0 nM VLD; T2 [6]: 9.4%
% CD8+ TNFa+ IFNg+; TRAC/TRBC; 0.005 nM VLD; T2 [6]: 21%
% CD8+ TNFa+ IFNg+; TRAC/TRBC; 0.05 nM VLD; T2 [6]: 53%
% CD8+ TNFa+ IFNg+; TRAC/TRBC; 0.5 nM VLD; T2 [6]: 74.3%
% CD8+ TNFa+ IFNg+; TRAC/TRBC; 5 nM VLD; T2 [6]: 79.8%
% CD8+ TNFa+ IFNg+; TRAC/TRBC; 50 nM VLD; T2 [6]: 81.3%
% CD4+ TNFa+ IFNg+; TRAC/TRBC; 50 nM RMF; T2 [7]: 1.6%
% CD8+ TNFa+ IFNg+; TRAC/TRBC; 50 nM RMF; T2 [7]: 10%
% CD4+ CD107a+; TRAC/TRBC; 0 nM VLD; T2 [8]: 4.45%
% CD4+ CD107a+; TRAC/TRBC; 0.005 nM VLD; T2 [8]: 4.64%
% CD4+ CD107a+; TRAC/TRBC; 0.05 nM VLD; T2 [8]: 4.68%
% CD4+ CD107a+; TRAC/TRBC; 0.5 nM VLD; T2 [8]: 4.23%
% CD4+ CD107a+; TRAC/TRBC; 5 nM VLD; T2 [8]: 11.8%
% CD4+ CD107a+; TRAC/TRBC; 50 nM VLD; T2 [8]: 21.1%
% CD8+ CD107a+; TRAC/TRBC; 0 nM VLD; T2 [8]: 21.9%
% CD8+ CD107a+; TRAC/TRBC; 0.005 nM VLD; T2 [8]: 37.3%
% CD8+ CD107a+; TRAC/TRBC; 0.05 nM VLD; T2 [8]: 64.1%
% CD8+ CD107a+; TRAC/TRBC; 0.5 nM VLD; T2 [8]: 73%
% CD8+ CD107a+; TRAC/TRBC; 5 nM VLD; T2 [8]: 75.8%
% CD8+ CD107a+; TRAC/TRBC; 50 nM VLD; T2 [8]: 76.2%
% CD4+ CD107a+; TRAC/TRBC; 50 nM RMF; T2 [9]: 4.3%
% CD8+ CD107a+; TRAC/TRBC; 50 nM RMF; T2 [9]: 22.1%
IL2 release; TRAC only; 0 nM VLD; T2 [10]: 2.26 pg/mL
IL2 release; TRAC only; 0.005 nM VLD; T2 [10]: 2250 pg/mL
IL2 release; TRAC only; 0.05 nM VLD; T2 [10]: 2050 pg/mL
IL2 release; TRAC only; 0.5 nM VLD; T2 [10]: 2010 pg/mL
IL2 release; TRAC only; 5 nM VLD; T2 [10]: 4270 pg/mL
IL2 release; TRAC only; 50 nM VLD; T2 [10]: 7060 pg/mL
IL2 release; TRAC only; 500 nM VLD; T2 [10]: 8380 pg/mL
IL2 release; TRAC/TRBC; 0 nM VLD; T2 [10]: 314 pg/mL
IL2 release; TRAC/TRBC; 0.005 nM VLD; T2 [10]: 304 pg/mL
IL2 release; TRAC/TRBC; 0.05 nM VLD; T2 [10]: 227 pg/mL
IL2 release; TRAC/TRBC; 0.5 nM VLD; T2 [10]: 200 pg/mL
IL2 release; TRAC/TRBC; 5 nM VLD; T2 [10]: 494 pg/mL
IL2 release; TRAC/TRBC; 50 nM VLD; T2 [10]: 1180 pg/mL
IL2 release; TRAC/TRBC; 500 nM VLD; T2 [10]: 1510 pg/mL
B2: TCR-A (WT1-specific T-cell receptor) (TCR)
TCR alpha: SQQPVQSPQAVILREGEDAVINCSSSKALYSVHWYRQKHGEAPVFLMILLKGGEQKGHEKISASFNEKKQQSSLYLTASQLSYSGTYFCGTAWINDYKLSFGAGTTVTVRANIQNPDPAVYQLRDSKSSDKSVCLFTDFDSQTNVSQSKDSDVYITDKTVLDMRSMDFKSNSAVAWSNKSDFACANAFNNSIIPEDTFFPSPESSCDVKLVEKSFETDTNLNFQNLSVIGFRILLLKVAGFNLLMTLRLWSS
TCR beta: DAGVIQSPRHEVTEMGQEVTLRCKPISGHDYLFWYRQTMMRGLELLIYFNNNVPIDDSGMPEDRFSAKMPNASFSTLKIQPSEPRDSAVYFCASRKTGGYSNQPQHFGDGTRLSILEDLKNVFPPEVAVFEPSEAEISHTQKATLVCLATGFYPDHVELSWWVNGKEVHSGVSTDPQPLKEQPALNDSRYCLSSRLRVSATFWQNPRNHFRCQVQFYGLSENDEWTQDRAKPVTQIVSAEAWGRADCGFTSESYQQGVLSATILYEILLGKATLYAVLVSALVLMAMVKRKDSRG
notes: P2A remnant on the beta chain is not described; also called AV11-TCR-A; TCR-A (no cys)
